Source: patent US20150344570A1 (published 2015)

T1: FcγRIIb extracellular domain with C-terminal His tag (human, UniProt P31994 43-217)
T1 construct: extracellular domain; Soluble receptor expressed in FreeStyle293 cells and used as analyte in Biacore; also called FcgRIIb; 2b; not shown: His tag at the C terminus
T1 sequence (looked up): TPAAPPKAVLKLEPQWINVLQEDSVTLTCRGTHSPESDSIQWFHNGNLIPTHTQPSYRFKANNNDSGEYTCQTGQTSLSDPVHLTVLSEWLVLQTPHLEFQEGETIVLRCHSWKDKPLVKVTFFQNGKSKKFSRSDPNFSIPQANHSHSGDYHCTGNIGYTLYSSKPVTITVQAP

B1: GpH7-A5/GpH7-B3 variant I336_10E/GpL16-k0 (antibody, human IgG1, kappa)
heavy 1: not shown
heavy 2: not shown
light: DIVMTQSPLSLPVTPGEPASISCQASESLVHSNRNTYLHWYLQKPGQSPQLLIYKVSNRFSGVPDRFSGSGSGTDFTLKISRVEAEDVGVYYCSQNTHVPPTFGQGTKVEIERTVAAPSVFIFPPSDEQLKSGTASVVCLLNNFYPREAKVQWKVDNALQSGNSQESVTEQDSKDSTYSLSSTLTLSKADYEKHKVYACEVTHQGLSSPVTKSFNRGEC
notes: Heterodimerized anti-glypican-3 IgG1 (He Ab); The mutation is in the GpH7-B3 chain only; also called He Ab with I336E in GpH7-B3
B2: GpH7-A5/GpH7-B3 variant (H268D)/GpL16-k0 (antibody, human IgG1, kappa)
heavy 1: not shown
heavy 2: not shown
light: B1 light
notes: also called He Ab H268_09D
B3: GpH7-A5/GpH7-B3 variant K334_19Q/GpL16-k0 (antibody, human IgG1, kappa)
heavy 1: not shown
heavy 2: not shown
light: B1 light
notes: Heterodimerized anti-glypican-3 IgG1 (He Ab); The mutation is in the GpH7-B3 chain only; also called He Ab with K334Q in GpH7-B3
B4: GpH7-A5/GpH7-B3 variant (A330P)/GpL16-k0 (antibody, human IgG1, kappa)
heavy 1: not shown
heavy 2: not shown
light: B1 light
notes: also called He Ab A330_05P
B5: GpH7-A5/GpH7-B3 variant K334_14T/GpL16-k0 (antibody, human IgG1, kappa)
heavy 1: not shown
heavy 2: not shown
light: B1 light
notes: Heterodimerized anti-glypican-3 IgG1 (He Ab); The mutation is in the GpH7-B3 chain only; also called He Ab with K334T in GpH7-B3
B6: GpH7-A5/GpH7-B3 variant I336_13S/GpL16-k0 (antibody, human IgG1, kappa)
heavy 1: not shown
heavy 2: not shown
light: B1 light
notes: Heterodimerized anti-glypican-3 IgG1 (He Ab); The mutation is in the GpH7-B3 chain only; also called He Ab with I336S in GpH7-B3
B7: GpH7-A5/GpH7-B3 variant K334_10E/GpL16-k0 (antibody, human IgG1, kappa)
heavy 1: not shown
heavy 2: not shown
light: B1 light
notes: Heterodimerized anti-glypican-3 IgG1 (He Ab); The mutation is in the GpH7-B3 chain only; also called He Ab with K334E in GpH7-B3
B8: GpH7-A5/GpH7-B3 variant I336_15Y/GpL16-k0 (antibody, human IgG1, kappa)
heavy 1: not shown
heavy 2: not shown
light: B1 light
notes: Heterodimerized anti-glypican-3 IgG1 (He Ab); The mutation is in the GpH7-B3 chain only; also called He Ab with I336Y in GpH7-B3
B9: GpH7-A5/GpH7-B3 variant (A330M)/GpL16-k0 (antibody, human IgG1, kappa)
heavy 1: not shown
heavy 2: not shown
light: B1 light
notes: also called He Ab A330_06M
B10: GpH7-A5/GpH7-B3 variant K334_15Y/GpL16-k0 (antibody, human IgG1, kappa)
heavy 1: not shown
heavy 2: not shown
light: B1 light
notes: Heterodimerized anti-glypican-3 IgG1 (He Ab); The mutation is in the GpH7-B3 chain only; also called He Ab with K334Y in GpH7-B3
B11: GpH7-A5/GpH7-B3 variant K334_13S/GpL16-k0 (antibody, human IgG1, kappa)
heavy 1: not shown
heavy 2: not shown
light: B1 light
notes: Heterodimerized anti-glypican-3 IgG1 (He Ab); The mutation is in the GpH7-B3 chain only; also called He Ab with K334S in GpH7-B3
B12: GpH7-A5/GpH7-B3 variant I336_14T/GpL16-k0 (antibody, human IgG1, kappa)
heavy 1: not shown
heavy 2: not shown
light: B1 light
notes: Heterodimerized anti-glypican-3 IgG1 (He Ab); The mutation is in the GpH7-B3 chain only; also called He Ab with I336T in GpH7-B3
B13: GpH7-A5/GpH7-B3 variant K334_20W/GpL16-k0 (antibody, human IgG1, kappa)
heavy 1: not shown
heavy 2: not shown
light: B1 light
notes: Heterodimerized anti-glypican-3 IgG1 (He Ab); The mutation is in the GpH7-B3 chain only; also called He Ab with K334W in GpH7-B3
B14: GpH7-A5/GpH7-B3 variant I336_19Q/GpL16-k0 (antibody, human IgG1, kappa)
heavy 1: not shown
heavy 2: not shown
light: B1 light
notes: Heterodimerized anti-glypican-3 IgG1 (He Ab); The mutation is in the GpH7-B3 chain only; also called He Ab with I336Q in GpH7-B3
B15: GpH7-A5/GpH7-B3 variant (A330F)/GpL16-k0 (antibody, human IgG1, kappa)
heavy 1: not shown
heavy 2: not shown
light: B1 light
notes: also called He Ab A330_04F

Legend:
[1] = molecular target: T1, FcγRIIb extracellular domain with …; test: SPR (Biacore), antibody captured on antigen-peptide chip, FcγR as analyte; relative binding amount
Experimental: (§1) The heterodimerized antibodies He Abs in which one of the H chains was introduced with an alteration were assayed for their binding activities to each activating FcγR and inhibitory FcγR according to the method described in Example 4. […] The activating FcγRs in FIGS. 26, 27, 28, and 29 are FcγRIa, FcγRIIa (R), FcγRIIa (H), and FcγRIIIa, respectively.
(§2) Analysis of interaction between objective antibody and the FcγR was carried out using Biacore T100 (GE Healthcare). HBS-EP+ (GE Healthcare) was used as the running buffer, and the measurement temperature was set to 25° C. Chips produced by immobilizing the antigen peptide by the amine coupling method to a Series S Sencor Chip CM5 (GE Healthcare), or alternatively, chips produced by allowing preliminarily biotinylated antigen peptides to interact with and immobilize onto a Series S Sensor Chip SA (certified) (GE Healthcare) were used. Antibodies of interest were captured onto an antigen peptide-immobilized chip, and allowed to interact to each FcγR diluted with running buffer. To regenerate and repeatedly use the chip, the antibodies captured on the chip were washed off by reacting 10 mM glycine-HCl, pH 1.5.

[2] = molecular target: T2, FcγRIIIa extracellular domain with C-terminal His tag (human, UniProt P08637 17-208); test: as above
T2 construct: extracellular domain; also called FcgRIIIa; 3a; not shown: His tag at the C terminus
Experimental: as §1, §2

[3] = molecular target: T2, FcγRIIIa extracellular domain with …; test: SPR (Biacore); He/Con for FcγRIIIa divided by He/Con for FcγRIIb
Experimental: as §1, §2

[4] = molecular target: T3, FcgRIIIa F (FcγRIIIa type F) extracellular domain with C-terminal His tag (human, UniProt P08637 17-208); test: SPR (Biacore); relative binding activity of the heterodimerized antibody with the alteration in one H chain
T3 construct: extracellular domain; also called FcγRIIIa F; 3aF; not shown: His tag attached to the C terminus
T3 sequence (P08637 17-208): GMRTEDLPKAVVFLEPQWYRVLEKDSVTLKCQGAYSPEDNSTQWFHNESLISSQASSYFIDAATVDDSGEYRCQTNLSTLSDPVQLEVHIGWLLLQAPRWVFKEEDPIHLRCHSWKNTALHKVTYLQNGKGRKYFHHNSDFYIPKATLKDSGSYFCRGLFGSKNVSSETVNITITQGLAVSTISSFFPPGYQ

T2 sequence (P08637 17-208): as above

| Binder | He/Con_2b (IIb binding) [1] | He/Con_3a (IIIa binding) [2] | He_3a/2b (IIIa/IIb) [3] [ratio] | He/Con_3aF [4] |
| --- | --- | --- | --- | --- |
| B1 | 89.8 relative, GpH7-A5/GpH7-B3/GpL16-k0 = 100 | 119 relative, GpH7-A5/GpH7-B3/GpL16-k0 = 100 | 1.33 | – |
| B2 | – | – | – | 195 % of GpH7-A5/GpH7-B3/GpL16-k0 (= 100) |
| B3 | 109 relative, GpH7-A5/GpH7-B3/GpL16-k0 = 100 | 136 relative, GpH7-A5/GpH7-B3/GpL16-k0 = 100 | 1.25 | – |
| B4 | – | – | – | 152 % of GpH7-A5/GpH7-B3/GpL16-k0 (= 100) |
| B5 | 115 relative, GpH7-A5/GpH7-B3/GpL16-k0 = 100 | 141 relative, GpH7-A5/GpH7-B3/GpL16-k0 = 100 | 1.23 | – |
| B6 | 83.7 relative, GpH7-A5/GpH7-B3/GpL16-k0 = 100 | 102 relative, GpH7-A5/GpH7-B3/GpL16-k0 = 100 | 1.21 | – |
| B7 | 114 relative, GpH7-A5/GpH7-B3/GpL16-k0 = 100 | 181 relative, GpH7-A5/GpH7-B3/GpL16-k0 = 100 | 1.58 | – |
| B8 | 68.2 relative, GpH7-A5/GpH7-B3/GpL16-k0 = 100 | 87.3 relative, GpH7-A5/GpH7-B3/GpL16-k0 = 100 | 1.28 | – |
| B9 | – | – | – | 139 % of GpH7-A5/GpH7-B3/GpL16-k0 (= 100) |
| B10 | 109 relative, GpH7-A5/GpH7-B3/GpL16-k0 = 100 | 141 relative, GpH7-A5/GpH7-B3/GpL16-k0 = 100 | 1.29 | – |
| B11 | 111 relative, GpH7-A5/GpH7-B3/GpL16-k0 = 100 | 145 relative, GpH7-A5/GpH7-B3/GpL16-k0 = 100 | 1.31 | – |
| B12 | 89.5 relative, GpH7-A5/GpH7-B3/GpL16-k0 = 100 | 108 relative, GpH7-A5/GpH7-B3/GpL16-k0 = 100 | 1.21 | – |
| B13 | 104 relative, GpH7-A5/GpH7-B3/GpL16-k0 = 100 | 128 relative, GpH7-A5/GpH7-B3/GpL16-k0 = 100 | 1.23 | – |
| B14 | 58.2 relative, GpH7-A5/GpH7-B3/GpL16-k0 = 100 | 92.5 relative, GpH7-A5/GpH7-B3/GpL16-k0 = 100 | 1.59 | – |
| B15 | – | – | – | 144 % of GpH7-A5/GpH7-B3/GpL16-k0 (= 100) |
